Results published in patent publication US20210077638A1 (Regeneron, published 2021).

Tests used:
[1] = target: T1, human MET on EBC-1, NCI-H441 and NCI-H358 cells (human, UniProt P08581 25-1390); experiment: saturation radioligand binding (antibody binding capacity) assay with 89Zr-DFO-H4H14639D on NCI-H441 cells, 4 C, 45 min, gamma counting; x axis is total antibody dosed, not free
T1 construct: whole, on cells; also called Met receptor; c-Met
Protocol: (§1) This wash process was repeated two more times, before resuspending cells in 200 μL of cold buffer (10% FBS in PBS, v/v). Of the 200 μL, 180 μL from each well was collected and dispensed into flip-cap tubes, representing the cell-bound antibody. […] A calibration curve was generated from the total antibody dosed samples using counts detected vs total antibody dosed per well, T, based on the dilution series starting from the initial antibody concentration (divided by five because of sampling). The calibration curve was used to convert the bound fraction counts (multiplied by […] because of sampling) to mass (or concentration) of bound antibody, B.
(§2) The radioligand internalization was also assayed at the highest dosed concentration at 4° C. for the 45 minutes. […] Activity of cell pellets, stripping supernatants, and wash supernatants were measured using a gamma counter. The fraction internalized, I, was calculated as the ratio of activity of the cell pellet over sum of the total activity of the cell pellet, stripping supernatant and wash supernatants.
(§3) Because there are multiple binding formats for H4H14639D, the data set was fit by the Hill-Langmuir equation (equation 3). The ABC was then calculated using equation 2. Non-specific binding was determined to be a negligible component for all runs was not considered as part of the analysis. […]

[2] = target: T1, human MET on EBC-1, NCI-H441 and …; experiment: saturation radioligand binding (antibody binding capacity) assay with 89Zr-DFO-H4H14639D on EBC-1 cells, 4 C, 45 min, gamma counting; x axis is total antibody dosed, not free
Protocol: as §1, §2, §3

[3] = target: MET ('target' in the SPR assay of Example 2; construct not stated) (UniProt P08581 25-932, limits assumed); experiment: SPR, Biacore 8k
Sequence of MET ('target' in the SPR assay of Example 2; construct not stated) (P08581 25-932 limits assumed): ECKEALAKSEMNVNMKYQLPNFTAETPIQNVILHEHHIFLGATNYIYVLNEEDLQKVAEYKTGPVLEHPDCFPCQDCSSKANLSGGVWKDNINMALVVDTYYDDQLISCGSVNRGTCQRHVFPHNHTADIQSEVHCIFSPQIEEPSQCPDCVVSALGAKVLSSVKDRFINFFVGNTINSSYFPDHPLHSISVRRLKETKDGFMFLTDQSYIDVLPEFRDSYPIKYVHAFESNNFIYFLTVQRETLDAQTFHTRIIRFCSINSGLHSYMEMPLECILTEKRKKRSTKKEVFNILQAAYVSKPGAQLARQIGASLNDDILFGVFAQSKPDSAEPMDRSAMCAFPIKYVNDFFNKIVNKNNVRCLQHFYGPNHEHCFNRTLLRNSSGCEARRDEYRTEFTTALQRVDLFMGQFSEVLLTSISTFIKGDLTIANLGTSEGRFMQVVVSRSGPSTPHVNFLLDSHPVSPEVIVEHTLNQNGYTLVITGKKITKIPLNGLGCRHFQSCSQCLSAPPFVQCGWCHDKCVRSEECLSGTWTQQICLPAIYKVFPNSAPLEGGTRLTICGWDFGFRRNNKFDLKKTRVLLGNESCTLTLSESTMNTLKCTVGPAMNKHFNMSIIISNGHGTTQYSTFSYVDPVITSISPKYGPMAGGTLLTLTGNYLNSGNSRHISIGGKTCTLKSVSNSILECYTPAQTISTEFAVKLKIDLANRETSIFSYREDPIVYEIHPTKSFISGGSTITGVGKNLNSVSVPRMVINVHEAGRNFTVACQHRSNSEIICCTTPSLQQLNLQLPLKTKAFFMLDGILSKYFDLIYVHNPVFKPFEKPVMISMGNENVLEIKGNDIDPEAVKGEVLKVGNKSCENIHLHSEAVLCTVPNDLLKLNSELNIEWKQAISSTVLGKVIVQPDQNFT

T1 sequence (P08581 25-1390): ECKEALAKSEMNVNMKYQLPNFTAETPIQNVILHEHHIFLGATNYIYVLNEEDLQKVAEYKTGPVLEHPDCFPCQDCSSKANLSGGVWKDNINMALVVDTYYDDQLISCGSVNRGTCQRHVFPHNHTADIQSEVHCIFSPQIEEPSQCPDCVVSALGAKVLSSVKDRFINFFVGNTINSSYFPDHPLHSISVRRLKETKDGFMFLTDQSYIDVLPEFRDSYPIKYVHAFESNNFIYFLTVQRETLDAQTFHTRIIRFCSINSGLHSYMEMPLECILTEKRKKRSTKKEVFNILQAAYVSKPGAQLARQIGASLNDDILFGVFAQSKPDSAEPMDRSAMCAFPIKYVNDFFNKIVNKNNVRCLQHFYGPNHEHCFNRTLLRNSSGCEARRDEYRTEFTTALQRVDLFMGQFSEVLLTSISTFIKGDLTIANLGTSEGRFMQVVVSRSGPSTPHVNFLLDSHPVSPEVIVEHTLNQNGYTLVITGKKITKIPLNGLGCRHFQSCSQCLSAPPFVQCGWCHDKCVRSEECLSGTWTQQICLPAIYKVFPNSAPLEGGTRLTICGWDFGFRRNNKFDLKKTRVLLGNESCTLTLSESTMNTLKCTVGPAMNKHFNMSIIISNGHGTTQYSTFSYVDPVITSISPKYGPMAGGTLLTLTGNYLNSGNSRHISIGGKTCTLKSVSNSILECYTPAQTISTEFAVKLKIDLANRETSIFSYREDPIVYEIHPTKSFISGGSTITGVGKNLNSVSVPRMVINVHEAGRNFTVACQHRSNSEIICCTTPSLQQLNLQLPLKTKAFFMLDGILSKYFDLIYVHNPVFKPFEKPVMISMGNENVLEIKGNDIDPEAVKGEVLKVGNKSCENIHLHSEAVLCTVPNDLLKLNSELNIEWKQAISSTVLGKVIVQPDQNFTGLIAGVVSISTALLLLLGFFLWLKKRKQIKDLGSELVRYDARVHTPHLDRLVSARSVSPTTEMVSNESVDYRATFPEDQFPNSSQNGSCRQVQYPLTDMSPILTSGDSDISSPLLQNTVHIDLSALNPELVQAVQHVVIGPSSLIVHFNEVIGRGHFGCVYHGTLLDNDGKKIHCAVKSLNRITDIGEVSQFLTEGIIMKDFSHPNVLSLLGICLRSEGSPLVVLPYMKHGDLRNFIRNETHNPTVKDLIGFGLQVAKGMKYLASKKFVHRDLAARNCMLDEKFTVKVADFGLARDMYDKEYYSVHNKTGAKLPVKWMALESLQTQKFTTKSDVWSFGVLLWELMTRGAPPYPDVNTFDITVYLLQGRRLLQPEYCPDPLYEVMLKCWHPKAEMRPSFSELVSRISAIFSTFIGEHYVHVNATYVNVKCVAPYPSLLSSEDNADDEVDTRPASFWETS

EC50 (read off the curve) [1]	EC50 (read off the curve) [2]	KD relative to the KD of the unconjugated bispecific antibody [3]	Binder
~2 nM	~3 nM		89Zr-DFO-H4H14639D (bispecific antibody, V domains shown, p-SCN-Bn-DFO on primary amines (sites not given), chelating 89Zr, also called DFO-Ab radioimmunoconjugate; 89Zr-DFO-MET x MET bispecific antibody conjugate) VH 1: EVQLVESGGGLVQPGTSLRLSCAASGFTFDDYAMHWVRQAPGKGLEWVSGITWNSYNIDYADSVKGRFTISRDNAKNSLYLQMNSLRAEDTALYYCAKDDDYSNYVYFDYWGQGTLVTVSS VH 2: EVQLVESGGGLVQPGGSLRLSCAASGFIVTTNYMTWLRQAPGKGLEWVSLIYSSGHTYYADSVKGRFTISRHNSKNTLYLQMDSLRAEDTAVYYCASAFAADVFDIWGQGTMVTVSS VL: not shown
		≤ 10%	DFO-H4H14639D immunoconjugate (DAR 1.26) (bispecific antibody, V domains shown, p-SCN-Bn-DFO on primary amines, sites not stated; average DAR 1.26 per antibody, also called DFO-Ab immunoconjugate; DFO-MET x MET immunoconjugate) VH 1: EVQLVESGGGLVQPGTSLRLSCAASGFTFDDYAMHWVRQAPGKGLEWVSGITWNSYNIDYADSVKGRFTISRDNAKNSLYLQMNSLRAEDTALYYCAKDDDYSNYVYFDYWGQGTLVTVSS VH 2: EVQLVESGGGLVQPGGSLRLSCAASGFIVTTNYMTWLRQAPGKGLEWVSLIYSSGHTYYADSVKGRFTISRHNSKNTLYLQMDSLRAEDTAVYYCASAFAADVFDIWGQGTMVTVSS VL: not shown
